Results: article PMC5851525, “Quantitative analysis of the impact of a human pathogenic mutation on the CCT5 chaperonin subunit using a proxy archaeal ortholog^” (Biochemistry and Biophysics Reports, 2017)
Blank lines part the entries; values can stand above or below the molecule they belong to.

What was measured:
Pf-CD1 [1] = target: T1, Pf-CD1 (Pyrococcus furiosus, UniProt Q8TZL6, DEL/LAST/OF/RESIDUES); test: isothermal titration calorimetry, one set of sites model; type: binding
T1 construct: gene PF1974; C-terminal deletion (last 22 residues of Pf-Cpn removed); expressed in E. coli BL21(DE3) from pET33b; homo-hexadecamer (two octameric rings)
T1 sequence (Q8TZL6 1-527): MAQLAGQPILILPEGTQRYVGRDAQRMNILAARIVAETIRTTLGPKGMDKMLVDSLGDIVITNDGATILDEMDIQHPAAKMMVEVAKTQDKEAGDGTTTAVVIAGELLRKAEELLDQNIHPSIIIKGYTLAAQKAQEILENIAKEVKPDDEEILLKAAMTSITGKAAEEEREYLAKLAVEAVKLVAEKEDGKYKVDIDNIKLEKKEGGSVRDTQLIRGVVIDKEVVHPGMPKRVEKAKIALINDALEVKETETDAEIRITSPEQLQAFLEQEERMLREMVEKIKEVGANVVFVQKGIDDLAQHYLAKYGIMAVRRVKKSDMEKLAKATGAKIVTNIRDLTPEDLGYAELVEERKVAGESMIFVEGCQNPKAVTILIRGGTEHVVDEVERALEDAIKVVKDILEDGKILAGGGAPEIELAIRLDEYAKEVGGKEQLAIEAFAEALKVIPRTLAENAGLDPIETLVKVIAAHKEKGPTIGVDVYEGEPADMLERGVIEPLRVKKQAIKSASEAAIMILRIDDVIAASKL
Description: (§1) isothermal titration calorimetry, one set of sites model on Pf-CD1

Pf-CD1 [2] = target: T2, Pf-CD1 (Pyrococcus furiosus, UniProt Q8TZL6, I138H); test: as above; type: binding
T2 construct: gene PF1974; C-terminal deletion (last 22 residues of Pf-Cpn removed); expressed in E. coli BL21(DE3) from pET33b; homo-hexadecamer (two octameric rings)
Description: as §1

Pf-CD1 [3] = target: T3, Pf-CD1 (Pyrococcus furiosus, UniProt Q8TZL6, I138R); test: as above; type: binding
T3 construct: gene PF1974; C-terminal deletion (last 22 residues of Pf-Cpn removed); expressed in E. coli BL21(DE3) from pET33b; homo-hexadecamer (two octameric rings)
Description: as §1

[4] = target: Pf-CD1 Ile138Arg (Pyrococcus furiosus); test: ITC; dilution experiment, 18 successive injections, 25 °C; fit to a two-state hexadecamer-monomer equilibrium (hexadecamer to monomers); parameters per subunit
[5] = target: Pf-CD1 Ile138His (Pyrococcus furiosus); test: as above
[6] = target: Pf-CD1, Pyrococcus furiosus chaperonin subunit (Pf-Cpn) with the last 22 amino acids deleted (Pyrococcus furiosus); test: as above

Molecule: Nc1ncnc2c1ncn2[C@@H]1O[C@H](COP(=O)(O)OP(=O)(O)OP(=O)(O)O)[C@@H](O)[C@H]1O [ATP]
Kd (Pf-CD1 [1]): 320 ± 50 nM
Kd (Pf-CD1 [2]): 300 ± 20 nM
Kd (Pf-CD1 [3]): 200 ± 10 nM

Kd [4]: 100 nM
dH of dissociation (∆Hd) [4]: -49 kcal/mol
stoichiometry N [4]: 16
Molecule: Pf-CD1 Ile138Arg (domain or fragment)

Kd [5]: 430 nM
dH of dissociation (∆Hd) [5]: -250 kcal/mol
stoichiometry N [5]: 16
Molecule: Pf-CD1 Ile138His (domain or fragment)

Kd [6]: 310 nM
dH of dissociation (∆Hd) [6]: -350 kcal/mol
stoichiometry N [6]: 16
Molecule: Pf-CD1, Pyrococcus furiosus chaperonin subunit (Pf-Cpn) with the last 22 amino acids deleted (domain or fragment)
